B1: RPS6KA2 S730E: Flag‐tagged full-length RPS6KA2 phosphomimetic mutant expressed in HEK293 cells (protein)
chain: MDLSMKKFAVRRFFSVYLRRKSRSKSSSLSRLEEEGVVKEIDISHHVKEGFEKADPSQFELLKVLGQGSYGKVFLVRKVKGSDAGQLYAMKVLKKATLKVRDRVRSKMERDILAEVNHPFIVKLHYAFQTEGKLYLILDFLRGGDLFTRLSKEVMFTEEDVKFYLAELALALDHLHSLGIIYRDLKPENILLDEEGHIKITDFGLSKEAIDHDKRAYSFCGTIEYMAPEVVNRRGHTQSADWWSFGVLMFEMLTGSLPFQGKDRKETMALILKAKLGMPQFLSGEAQSLLRALFKRNPCNRLGAGIDGVEEIKRHPFFVTIDWNTLYRKEIKPPFKPAVGRPEDTFHFDPEFTARTPTDSPGVPPSANAHHLFRGFSFVASSLIQEPSQQDLHKVPVHPIVQQLHGNNIHFTDGYEIKEDIGVGSYSVCKRCVHKATDTEYAVKIIDKSKRDPSEEIEILLRYGQHPNIITLKDVYDDGKFVYLVMELMRGGELLDRILRQRYFSEREASDVLCTITKTMDYLHSQGVVHRDLKPSNILYRDESGSPESIRVCDFGFAKQLRAGNGLLMTPCYTANFVAPEVLKRQGYDAACDIWSLGILLYTMLAGFTPFANGPDDTPEEILARIGSGKYALSGGNWDSISDAAKDVVSKMLHVDPHQRLTAMQVLKHPWVVNREYLSPNQLSRQDVHLVKGAMAATYFALNRTPQAPRLEPVLSSNLAQRRGMKRLTETRL
modifications: left off: 3xFlag, end not stated, kept
notes: Flag‐tagged full-length RPS6KA2 phosphomimetic mutant expressed in HEK293 cells
B2: Flag‐tagged RPS6KA1: Flag‐tagged full-length wild-type RPS6KA1 expressed in HEK293 cells (protein, UniProt Q15418 1-735, looked up)
chain: MPLAQLKEPWPLMELVPLDPENGQTSGEEAGLQPSKDEGVLKEISITHHVKAGSEKADPSHFELLKVLGQGSFGKVFLVRKVTRPDSGHLYAMKVLKKATLKVRDRVRTKMERDILADVNHPFVVKLHYAFQTEGKLYLILDFLRGGDLFTRLSKEVMFTEEDVKFYLAELALGLDHLHSLGIIYRDLKPENILLDEEGHIKLTDFGLSKEAIDHEKKAYSFCGTVEYMAPEVVNRQGHSHSADWWSYGVLMFEMLTGSLPFQGKDRKETMTLILKAKLGMPQFLSTEAQSLLRALFKRNPANRLGSGPDGAEEIKRHVFYSTIDWNKLYRREIKPPFKPAVAQPDDTFYFDTEFTSRTPKDSPGIPPSAGAHQLFRGFSFVATGLMEDDGKPRAPQAPLHSVVQQLHGKNLVFSDGYVVKETIGVGSYSECKRCVHKATNMEYAVKVIDKSKRDPSEEIEILLRYGQHPNIITLKDVYDDGKHVYLVTELMRGGELLDKILRQKFFSEREASFVLHTIGKTVEYLHSQGVVHRDLKPSNILYVDESGNPECLRICDFGFAKQLRAENGLLMTPCYTANFVAPEVLKRQGYDEGCDIWSLGILLYTMLAGYTPFANGPSDTPEEILTRIGSGKFTLSGGNWNTVSETAKDLVSKMLHVDPHQRLTAKQVLQHPWVTQKDKLPQSQLSHQDLQLVKGAMAATYSALNSSKPTPQLKPIESSILAQRRVRKLPSTTL
modifications: full-length Flag tag
notes: Flag‐tagged full-length wild-type RPS6KA1 expressed in HEK293 cells

Experiments:
GST‐tagged Scribble PDZ1 = assay: GST-pulldown from HEK293 lysates with GST-tagged Scribble PDZ1; assay type: binding, human; conditions: Flag‐tagged full-length protein over-expressed in HEK293 cells; anti‐Flag detection
Source text: (§1) pDONR223‐RPS6KA2 (Johannessen et al, 2010) was a gift from William Hahn & David Root (Addgene plasmid # 23530). The gene was PCR‐amplified introducing HindIII and EcoRI restriction sites along with the C‐terminal phosphomimetic (S730E) or phosphoinhibiting (S730A) mutations, or the PDZbm deletion (T731‐L733). pKH3‐human RSK1 was a gift from John Blenis (Addgene plasmid # 13841; Richards et al, 2001). The gene was PCR‐amplified introducing HindIII and EcoRI restriction sites, and a and PDZbm deletion (T733‐L735) was generated. The genes (wild type and mutants) were cloned into 3xFlag CMV‐10 vector and subjected to Sanger sequencing. […]
(§2) The plasmids encoding 3xFlag RPS6KA2 wild type and mutants thereof, 3xFlag RPS6KA1 and mutants thereof, and GFP‐tagged full‐length human Scribble (Navarro et al, 2005) were Midipreped using PureLink HiPure Plasmid Midiprep Kit (Invitrogen). […] The membranes were immunoblotted with anti‐Flag (ab1162; Abcam), anti‐GFP (ab6556; Abcam), and anti‐actin (ab1801; Abcam) primary antibodies followed by HRP‐conjugated anti rabbit secondary antibody (Life technologies) and detected with Amersham ECL Western Blotting Detection Reagent (GE Healthcare), and exposed to high‐performance chemiluminescence film (Amersham Hyperfilm ECL; GE Healthcare) for 30–180 s and developed and fixed using GBX developer and fixer (Carestream Dental).

[1] = tested on: GFP‐tagged full‐length Scribble; assay: Co-immunoprecipitation in HEK293 cells; assay type: binding, human; conditions: transient expression in HEK293 cells; anti‐Flag beads; anti‐Flag and anti‐GFP detection
Source text: as §1, §2

| Molecule | GST‐pulldown with GST‐tagged Scribble PDZ1 (GST‐tagged Scribble PDZ1) | co‐IP with GFP‐tagged full‐length Scribble [1] |
| --- | --- | --- |
| B1 | confirmed an interaction | strong co‐IP |
| B2 | interaction was further confirmed |  |
